According to patent US10220090B2, “BCMA Antigen binding proteins” (Amgen Inc., priority 2012, dated 2019):

Legend:
H929 = test: CellTiter-Glo Luminescent Cell Viability Assay, H929; assay type: cell-based, human; settings: ADCs of hybridoma-derived antibodies
Experimental: The ADCs were tested for the ability to target and kill BCMA-expressing myeloma cells. The CellTiter-Glo® Luminescent Cell Viability Assay is a homogeneous method to determine the number of viable cells in culture based on quantitation of the ATP present, which signals the presence of metabolically active cells. The CellTiter-Glo® Assay is applicable to cytotoxicity assays (see http://www.promega.com/products/cell-health-assays/cell-viability-assays/celltiter_glo-luminescent-cell-viability-assay/for more information). The cell viability assay was used to assess the relative killing capacity of various ADCs on various multiple myeloma cell lines and B-cell lines. The protocol provided in the Cell Titer-Glo kit (Promega G7572) was followed. […] The ADCs were diluted into a 10× stock to create 500 nM maytansine drug equivalents. […] 10 ul of the 10×ADC dilution series was added to the 90 ul of cells in media (triplicate wells). The highest concentration of ADC was approximately 50 nM maytansine drug equivalents, and the lowest concentration of ADC was approximately 50 pM maytansine drug equivalents. An isotype control ADC (an anti-streptavidin huIgG1 conjugated to MCC-DM1) was included, as well as a media-only control. The plates were incubated at 37° C., 5% CO2 for 96 hours. After incubation, 100 ul of the Substrate Solution (Promega G7572) was added to each well. Luminescence was read on an EnVision™ Multilabel reader (PerkinElmer) or Analyst HT plate reader (LJL Biosciences). The data was analyzed and graphed using GraphPad Prism™ to determine the relative efficacy of the ADCs on various cancer cell lines.
The 2A1CV5-MCC-DM1, 32B5-MCC-DM1 and 29C12-MCC-DM1 ADCs were tested for the ability to target and kill BCMA-expressing myeloma cells (H929). The CellTiter-Glo® Luminescent Cell Viability Assay is a homogeneous method to determine the number of viable cells in culture based on quantitation of the ATP present, which signals the presence of metabolically active cells. The CellTiter-Glo® Assay is applicable to cytotoxicity assays (see http://www.promega.com/products/cell-health-assays/cell-viability-assays/celltiter_glo-luminescent-cell-viability-assay/for more information). The cell viability assay was used to assess the relative killing capacity of various ADCs on various multiple myeloma cell lines and B-cell lines. The protocol provided in the Cell Titer-Glo kit (Promega G7572) was followed. […] The ADCs were diluted into a 10× stock to create 500 nM maytansine drug equivalents. […] 10 ul of the 10×ADC dilution series was added to the 90 ul of cells in media (triplicate wells). The highest concentration of ADC was approximately 50 nM maytansine drug equivalents, and the lowest concentration of ADC was approximately 50 pM maytansine drug equivalents. An isotype control ADC (an anti-streptavidin huIgG1 conjugated to MCC-DM1) was included, as well as a media-only control. The plates were incubated at 37° C., 5% CO2 for 96 hours. After incubation, 100 ul of the Substrate Solution (Promega G7572) was added to each well. Luminescence was read on an EnVision™ Multilabel reader (PerkinElmer) or Analyst HT plate reader (LJL Biosciences). The data was analyzed and graphed using GraphPad Prism™ to determine the relative efficacy of the ADCs on various cancer cell lines.

human BCMA = molecular target: T1, human BCMA (Homo sapiens, UniProt Q02223, N81S); test: FACS binding on cells transiently transfected to express full length BCMA
T1 construct: expressed in transfected cells
T1 sequence (Q02223 1-184 N81S): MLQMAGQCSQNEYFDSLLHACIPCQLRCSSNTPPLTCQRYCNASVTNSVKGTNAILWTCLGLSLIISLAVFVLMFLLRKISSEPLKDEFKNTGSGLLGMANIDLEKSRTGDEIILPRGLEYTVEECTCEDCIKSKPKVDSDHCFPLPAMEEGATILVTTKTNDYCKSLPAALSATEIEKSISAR
Experimental: An important criterion is exquisite selectivity for wild-type human BCMA expressed on the surface of cells. FACS binding on cells transiently transfected to express full length BCMA, TACI, or BAFF-R was performed using standard techniques. Approximately 40×10^6 of the transiently-transfected target cells were resuspended in a staining solution (2% goat serum, 1% rabbit serum, 0.02% azide in PBS) and aliquoted into round-bottom, 96-well plate (Corning Incorp., Acton, Mass.) as per the experiment design. The cells were incubated at 4 degrees celsius for 30 minutes to block non-specific sites. The antibodies were titrated into the staining solution. The cells were rinsed in a rinse solution (PBS+0.02% azide) by resuspending the cells in 200 ul/well. The cells were centrifuged at 1500 rpm at 4 degrees celsius for 7 minutes. The rinse solution was removed and the rinse step was repeated. The cells were resuspended in the appropriate antibody solution (see the matrix in TABLE 4) at 30 ul/well and incubated at 4 degrees celsius for 30 minutes. […] For the mouse IgG1 negative control and the two mouse antibodies (1.183 and 1.288), the secondary reagent was an anti-mouse IgG-PE conjugate (BD Pharmingen Cat. 550589). The cells/antibodies were rinsed as described above to remove excess/unbound antibody. […] Samples were read at 532 nm wavelength on FACS. […]

BCMA on H929 cells = molecular target: T2, BCMA on H929 cells (Homo sapiens, UniProt Q02223, N81S); test: FACS binding to native BCMA on H929 myeloma cells
T2 construct: host or cells: H929
T2 sequence (Q02223 1-184 N81S): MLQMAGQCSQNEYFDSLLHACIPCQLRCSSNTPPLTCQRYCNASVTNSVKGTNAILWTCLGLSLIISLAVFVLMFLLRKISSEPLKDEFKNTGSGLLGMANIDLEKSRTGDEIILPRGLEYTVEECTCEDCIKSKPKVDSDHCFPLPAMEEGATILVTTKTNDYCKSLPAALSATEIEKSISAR
Experimental: Approximately 10 to 40×10^6 of H929 myeloma cells were resuspended in a staining solution (2% goat serum, 1% rabbit serum, 0.02% azide in PBS) and aliquoted into round-bottom, 96-well plate (Corning Incorp., Acton, Mass.) as per the experiment design. The cells were incubated at 4 degrees celsius for 30 minutes to block non-specific sites. The antibodies were titrated into the staining solution. The cells were rinsed in a rinse solution (PBS+0.02% azide) by resuspending the cells in 200 ul/well. The cells were centrifuged at 1500 rpm at 4 degrees celsius for 7 minutes. The rinse solution was removed and the rinse step was repeated. […] The cells/antibodies were rinsed as described above to remove excess/unbound antibody. After the last rinse, the cells were resuspended in 200 ul of rinse solution with a drop of staining solution added to keep the cells from aggregating.
The antibodies were tested for binding to BCMA endogenously-expressed on a variety of cells, including the H929 cell line, which were developed from B-lymphocytes from a myeloma/plasmacytoma patient (ATCC, Manassa, Va.) using standard FACs techniques. […] The supernatants were removed and the cell pellets were resuspended in 0.2 mL/tube 4% paraformaldehyde in PBS and analyzed by flow cytometry

Row | Molecule | cytotoxicity to huBCMA-expressing myeloma target cells (H929) (H929) | BCMA (FACS binding) (human BCMA) | binding to human BCMA on the surface of H929 myeloma cell line (BCMA on H929 cells)
1 | 29C12.1 ADC (conjugate) VH: EVQLLESGGALVQPGGSLRLSCAASGFTFSSYAMNWVRQAPGKGLEWVSAISVGGDTYYADSVKGRFTISRDNSKNTLYLQMNSLRAEDTAVYYCAKDQVTMVRGVWYYYGLDVWGQGTTVTVSS VL: DIVMIQSPLSLPVTPGEPASISCRSSQSLLHSNGNNYLDWYLQKPGQSPHLLISLGSNRTSGVPDRFSGSGSGTDFTLKISRVEAEDVGVYYCMQALQPPRRFGQGTKLEIKR | showed cytotoxicity | – | –
2 | 35D2.1 ADC (conjugate) VH: EVQLLESGGALVQPGGSLRLSCAASGFTFSSYAMNWVRQAPGKGLEWVSAISVGGGTYYADSVKGRFTISRDNSKNTLYLHVNSLRAEDTAVYYCAKDQVTMVRGVWYYYGLDVWGQGTTVTVSS VL: VIVLIQSPLSLPVTPGEPASISCRSSQSLLHSNGNNYLDWYLQKPGQSPHLLISLGSNRTSGVPDRFSGSGSGTDFTLKISRVEAEDVGFYYCMQALQPPRRFGQGTKLEIKR | showed cytotoxicity | – | –
3 | 37B2.1 ADC (conjugate) VH: EVQLLESGGALVQPGGSLRLSCAASGFTFSNYAMNWVRQAPGKGLEWVSAISVGGDTYYADSVKGRFTISRDNSKNTLYLHVNSLSAEDSAVYYCAKDQVTLVRGVWYYYGLDVWGQGTTVTVSS VL: VIVLIQSPLSLPVTPGEPASISCRSSQSLLHSNGNNYLDWYLQKPGQSPHLLISLGSNRTSGVPDRFSGSGSGTDFTLKISRVEAEDVGFYYCMQALQPPRRFGQGTKLEIKR | showed cytotoxicity | – | –
4 | 40D7.1 ADC (conjugate) VH: EVQLLESGGALVQPGGSLRLSCAASGFTFSSYAMNWVRQAPGKGLEWVSAISVGGDTYYADSVKGRFTISRDNSKNTLYLQMNSLRAEDTAVYYCAKDQVTMVRGVWYYYGLDVWGQGTTVTVSS VL: DIVMIQSPLSLPVTPGEPASISCRSSQSLLHSNGNNFLDWYLQKPGQSPHLLISLGSNRTSGVPDRLSGSGSGTDFTLKISRVEAEDVGIYYCMQALRPPRRFGQGTKLEIKR | showed cytotoxicity | – | –
5 | 32B5.1 ADC (conjugate) VH: EVQLLESGGALVQPGGSLRLSCAASGFTFSSYAMNWVRQAPGKGLEWVSAISVGGDTYYADSVKGRFTISRDNSKNTLYLHVNSLSAEDSAVYYCAKDQVTLVRGVWYYYGLDVWGQGTTVTVSS VL: VIVLIQSPLSLPVTPGEPASISCRSSQSLLHSNGNNYLDWYLQKPGQSPHLLISLGSNRTSGVPDRFSGSGSGTDFTLKISRVEAEDVGFYYCMQALQPPRRFGQGTKLEIKR | showed cytotoxicity | – | –
6 | 33C7.1 ADC (conjugate) VH: EVQLLESGGALVQPGGSLRLSCAASGFTFSSYAMNWVRQAPGKGLEWVSAISVGGDTYYADSVKGRFTISRDNSKNTLYLHVNSLSAEDSAVYYCAKDQVTLVRGVWYYYGLDVWGQGTTVTVSS VL: VIVLIQSPLSLPVTPGEPASISCRSSQSLLHSNGNNYLDWYLQKPGQSPHLLISLGSNRTSGVPDRFSGSGSGTDFTLKISRVEAEDVGFYYCMQALQPPRRFGQGTKLEIKR | showed cytotoxicity | – | –
7 | Ab-4: fully human anti-huBCMA mAb, Vh SEQ ID NO:212, Vl SEQ ID NO:246 (antibody, V domains shown) VH: QVQLVQSGAEVKKPGASVKVSCKASGYTFTGHYIHWVRQAPGQGLEWMGWIYPNSGGTNYAQKFQGRVTMTRDTSISTAYMELSRLRSDDSAVYYCAREGMVTGDYYYYRMDVWGQGTTVIVSS VL: QPVLTQPPSASASLGASVTLTCSLSSGYSNYKVDWYQQRPGKGPRFVMRVGIGGIVGSKGDGIPDRFSVLGSGLNRYLTIKNIQEEDESDFHCGADHGSGNNFVYVFGTGTKVTVLG | – | + (A sample was considered positive for binding if the MFI was two times the negative control value) | bound to human BCMA
